The values below come from patent US9212226B2, “Amino acid sequences directed against CXCR4 and other GPCRs and compounds comprising the same” (Ablynx N.V., priority 2008, dated 2015).

For assay [1], the target named is T1, CXCR4 (Homo sapiens, UniProt P61073). Put plainly: [125I]-238D4 competition binding on membranes from HEK293T cells transiently expressing CXCR4. The following applies: for displacement of [125I]-238D4 from CXCR4: [125I]-238D4 3 nM; for Displacem. (%) of [125I]-238D4 at 0.5 μM: at highest test concentration of 0.5 μM (footnote a: no significant displacement; b: maximum not reached). The procedure: (§1) HEK293T cells were maintained at 37° C. in a humidified 5% CO2, 95% air atmosphere in Dulbecco's modified Eagle's medium (DMEM) containing 2 mM L-glutamine, 50 IU/ml penicillin, 50 μg/ml streptomycin, and 10% (v/v) fetal calf serum. Jurkat cells were cultured in a humidified 5% CO2, 95% air atmosphere in a 1:1 mixture of Dulbecco's modified Eagle's medium (DMEM) and Ham's F12 medium containing 2 mM L-glutamine, 50 IU/ml penicillin, 50 μg/ml streptomycin, and 10% (v/v) fetal calf serum. […] [^125 I]-Labelling— Radiolabeling of Nanobodies with ^125I was performed using the Iodo-gen method (Pierce, Rockford, Ill.) according to the manufacturer's protocol. ^125I-labeled Nanobodies was separated from free iodine (>99%) using a Sephadex G-25 gel filtration column (Amersham Biosciences, Piscataway, N.J.). […] Competition Binding Assays— Membranes from HEK293T cells transiently expressing CXCR3 or CXCR4 were prepared 48 h after transfection as follows. Cells were washed and scraped from the cell culture dishes with ice-cold PBS containing 1 mm EDTA. The scraped cells were pelleted at 1500×g for 10 min at 4° C. The pellet was washed and then resuspended in ice-cold membrane buffer (15 mM Tris, pH 7.5, 1 mM EGTA, 0.3 mM EDTA, and 2 mM MgCl2). The cell suspension was homogenized by 10 strokes at 1200 rpm using a Teflon-glass homogenizer and rotor and further subjected to three freeze-thaw cycles using liquid nitrogen. Membranes were separated by centrifugation at 40,000 g for 25 min at 4° C. The membrane pellet was washed and resuspended in ice-cold Tris-sucrose buffer (20 mM Tris, pH 7.4, and 250 mM sucrose) and frozen in liquid nitrogen. The total protein was determined using a Bradford assay (Bio-Rad). […] Membranes were then harvested over polyethylenimine (0.5%)-treated Whatman GF/C filter plates and washed three times with ice cold binding buffer containing 500 mM NaCl. Plates were counted by liquid scintillation. Inositol Phosphate Accumulation Assay— 24 hours post transfection with pcDNA3.1-CXCR4 and pcDNA1-HA-mG {alpha} qi5 (see Verzijl et al, 2008 supra), 250.000 cells were seeded into 24-wells plates and labelled overnight using inositol-free minimal essential medium supplemented with 1 μCi myo-[2-^3H]-inositol. The next day, the cells were washed once to remove not incorporated myo-[2-^3H]-inositol. […] In agonist experiments, the cells were directly stimulated with test compounds and LiCl (10 mM) in assay buffer for 2 h at 37° C. The stimulation was stopped by aspirating the stimulation medium and adding ice-cold 10 mM formic acid. The accumulated inositol phosphates were isolated by anion exchange chromatography and counted by liquid scintillation. CRE Reporter Gene Assay— HEK239T cells were transfected with pCRE/β-galactosidase (Chen W, Shields T S, Stork P J S, Cone R D (1995) Anal Biochem 226:349-354) and plasmids (pcDEF3 or pcDNA3.1) encoding the indicated receptors. 40,000 transfected cells per well were seeded into 96 well plates and grown in DMEM supplemented with 10% fetal calf serum. The medium was replaced 32 h after transfection by serum-free DMEM supplemented with 0.5% bovine serum albumin and ligands as indicated. […] The β-galactosidase activity was determined by the measurement of absorption at 420 nm with a PowerwaveX340 plate reader (Bio-Tek Instruments Inc., Winooski, Vt.) after incubation with the assay buffer when the OD420 value for forskolin (3 μM) controls reached 0.4-0.6. Chemotaxis Assay— The chemotactic responsiveness of Jurkat 3D cells was assessed using ChemoTx™ plates (Receptor Technologies Ltd., Oxon, UK) in which a upper cell-containing compartment is separated from a lower chemoattractant-containing compartment by a polyvinylpyrollidone-free polycarbonate filter with 5-μm pores. Cells were harvested, washed and resuspended in RPMI containing 0.5% bovine serum albumin and then loaded to 150,000 cells per well in a volume of 25 μl into the upper compartment of the chemotaxis chamber.

In assay [2] the target is T1, CXCR4. The assay is described as follows: [125I]-CXCL12 competition binding on membranes from HEK293T cells transiently expressing CXCR4. The following applies: for Displacem. (%) of [125I]-CXCL12 at 0.5 μM: at highest test concentration of 0.5 μM (footnote a: no significant displacement); for displacement of specifically bound [125I]-CXCL12: purified ligands, highest Nanobody test concentration 0.5 μM; for Binding (binding efficiency, competition binding with [125I]-CXCL12): screening of Nanobody clone pools, membranes from HEK293T cells transiently expressing CXCR4. The protocol:
as §1

Assay [3] deals with T1, CXCR4. The assay is described as follows: [125I]-238D2 competition binding on membranes from HEK293T cells transiently expressing CXCR4. The following applies: for displacement of [125I]-238D2 from CXCR4: [125I]-238D2 3 nM; for Displacem. (%) of [125I]-238D2 at 0.5 μM: at highest test concentration of 0.5 μM (footnote a: no significant displacement; b: maximum not reached). The procedure: as §1

T1 sequence (P61073 whole entry): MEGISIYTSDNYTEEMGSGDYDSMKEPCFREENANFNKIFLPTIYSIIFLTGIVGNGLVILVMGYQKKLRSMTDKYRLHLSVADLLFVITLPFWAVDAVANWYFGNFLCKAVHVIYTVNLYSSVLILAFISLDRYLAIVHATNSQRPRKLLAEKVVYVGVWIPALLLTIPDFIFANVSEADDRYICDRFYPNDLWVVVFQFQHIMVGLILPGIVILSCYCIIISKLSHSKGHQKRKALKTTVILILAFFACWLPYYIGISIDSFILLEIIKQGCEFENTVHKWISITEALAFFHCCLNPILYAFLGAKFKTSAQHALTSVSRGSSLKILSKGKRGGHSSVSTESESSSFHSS

B1: 238C5: Nanobody (VHH) raised against human CXCR4, SEQ ID NO: 243 (protein)
VHH: EVQLMESGGGLVQAGGSLRLACAASGFTFEDYAIGWFRKAPGKEREGVSCISGSDGSTTYADSVKGRFTISTDNAKNTVYLEMNSLKPEDTAVYYCAQQYGVGGRVVCPGPYEYDVWGQGTQVTVSS
modifications: Nanobody, Nanobody constructs or fragments thereof
Take B1: in the assay with CXCR4 [1], the “displacement of [125I]-238D4 from CXCR4” value is listed as “displaces” and the “Displacem. (%) of [125I]-238D4 at 0.5 μM” value is listed as 38 ± 4^b %. Moreover, in the assay with CXCR4 [2], the “Displacem. (%) of [125I]-CXCL12 at 0.5 μM” value was 0^a %; the “displacement of specifically bound [125I]-CXCL12” value was “unable to displace”; the “Binding (binding efficiency, competition binding with [125I]-CXCL12)” value is “+ (+ = 30-69%)”. Moreover, the “affinity to CXCR4” value with CXCR4 [2] (in words) was “low affinity”. Moreover, in the assay with CXCR4 [3], the “displacement of [125I]-238D2 from CXCR4” value is listed as “displaces” and the “Displacem. (%) of [125I]-238D2 at 0.5 μM” value is 45 ± 5^b %. Also, the “binding mode at CXCR4” value in the assay with CXCR4 [3] (displacement of labelled Nanobodies only at ≧100 nM) is “low affinity allosteric CXCR4 ligand”.

B2: 237G7: Nanobody (VHH) raised against human CXCR4, SEQ ID NO: 251 (protein)
VHH: EVQLVESGGGLVQPGGSLRLSCAASSFIGNYHAIVWLRQAPGKELEGVSCITSRDSITYYASFVKGRFTISRDDAKNTVYLQMNNLKPEDTAVYYCAVBTSMTCPTLIVRFNYRGQGTQVTVSS
modifications: Nanobody, Nanobody constructs or fragments thereof
Take B2: in the assay with CXCR4 [1], the “displacement of [125I]-238D4 from CXCR4” value was “unable to inhibit” and the “Displacem. (%) of [125I]-238D4 at 0.5 μM” value is listed as 0^a %. In the assay with CXCR4 [2], the “Displacem. (%) of [125I]-CXCL12 at 0.5 μM” value is 0^a %; the “displacement of specifically bound [125I]-CXCL12” value was “unable to displace”; the “Binding (binding efficiency, competition binding with [125I]-CXCL12)” value is on record as “+ (+ = 30-69%)”. Further, in the assay with CXCR4 [3], the “displacement of [125I]-238D2 from CXCR4” value is reported as “unable to inhibit” and the “Displacem. (%) of [125I]-238D2 at 0.5 μM” value was 0^a %.
